In publication PMC11934133 (2025):

T1: Zika virus SPH2015 nonstructural protein 1 (NS1) (Zika virus (strain SPH2015))
T1 chain: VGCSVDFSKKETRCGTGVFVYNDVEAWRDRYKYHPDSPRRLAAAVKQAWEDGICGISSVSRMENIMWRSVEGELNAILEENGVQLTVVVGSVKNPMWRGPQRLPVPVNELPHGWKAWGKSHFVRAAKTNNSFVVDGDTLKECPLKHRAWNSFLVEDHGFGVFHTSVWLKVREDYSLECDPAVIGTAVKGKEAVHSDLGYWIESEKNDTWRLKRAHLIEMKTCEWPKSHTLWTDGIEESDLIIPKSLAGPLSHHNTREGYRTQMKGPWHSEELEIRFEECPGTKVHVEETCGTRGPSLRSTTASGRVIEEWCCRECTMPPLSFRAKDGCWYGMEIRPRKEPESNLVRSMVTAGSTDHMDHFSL

B1: ZIKV_NbD6 with C-terminal StrepTag-II (VHH)
VHH: EVQLVESGGGSVQPGGSLRLSCAASGFAFSHYAMRWVRQAPGKGLEWVSVINSDGEDTWYADSVKGRFTISRDNAKNTLYLQMNSLKPEDTGVYYCAIGRTHDTKGQGTQVTVSS
B2: ZIKV_Nb32 with C-terminal StrepTag-II (VHH)
VHH: EVQLVESGGGLVQAGGSLRLSCAVSGIDFSRYAITWNRQSPGNQRREWVATLPPADTTVYADAVKGRFTISRDNTKNTVYLQMNSLKPEDTAVYYCATSPRIHNWGQGTQVTVSS
B3: GST-tagged ZIKV_Nb32 (VHH)
VHH: EVQLVESGGGLVQAGGSLRLSCAVSGIDFSRYAITWNRQSPGNQRREWVATLPPADTTVYADAVKGRFTISRDNTKNTVYLQMNSLKPEDTAVYYCATSPRIHNWGQGTQVTVS
B4: GST-tagged ZIKV_NbD6 (VHH)
VHH: EVQLVESGGGSVQPGGSLRLSCAASGFAFSHYAMRWVRQAPGKGLEWVSVINSDGEDTWYADSVKGRFTISRDNAKNTLYLQMNSLKPEDTGVYYCAIGRTHDTKGQGTQVTVS

Key:
[1] = target: T1, Zika virus SPH2015 nonstructural …; test: BLI
[2] = target: Zika virus SPH2015 nonstructural protein 1 (NS1) (Zika virus (strain SPH2015)); test: BLI; remark: listed apart in the source
[3] = target: T1, Zika virus SPH2015 nonstructural …; test: BLI; NS1 saturated with Nb32-Strep
[4] = target: T1, Zika virus SPH2015 nonstructural …; test: BLI; GST-VHH immobilized, NS1 in solution
[5] = target: T1, Zika virus SPH2015 nonstructural …; test: BLI; NS1 immobilized, GST-VHH in solution

Binder	koff [1] [s⁻¹]	Kd [2] [nM]	fold increase of koff against the GST-tagged nanobody [2] [fold]	fold increase of kon against the GST-tagged nanobody [2] [fold]	Kd [3] [nM]	koff [4] [s⁻¹]	koff [5] [s⁻¹]	fold increase of koff against the orientation with the nanobody immobilised [2] [fold]
B1	0.002	8	26	3.6	5.9			
B2	0.00029	0.16	15	3.2				
B3		0.035				< 1e-07	2e-05	> 100
B4						< 1e-07	7.6e-05	
